# Test results published in paper PMC13218722.
# How the values were obtained:
# [1] = biological target: LFA-1 (CD11a/CD18) on THP-1 cells and primary human NK cells (human (endogenous in THP-1 and primary NK cells)) (UniProt P20701)
# [2] = biological target: LFA-1 (CD11a/CD18) on THP-1 cells and primary human NK cells (human (endogenous in THP-1 and primary NK cells)) (UniProt P20701); assay: flow cytometry on cells; THP-1 cells, with or without CD11a siRNA, fixed, incubated with 250 nM GBP130-Fc or 250 nM hIgG control in FACS buffer 2 hr; PE-Texas Red anti-human secondary antibody
# [3] = biological target: LFA-1 αI-Fc fusion protein (human) (UniProt P20701); assay: BLI; LFA-1 αI immobilised on AR2G (amine reactive) sensor at 100 ng; PfGBP-130-N as analyte at increasing concentrations; 1× PBS pH 7.4; 25°C; 800 s; 1:1 binding model; Octet K2; n≥3
# Sequence of LFA-1 αI-Fc fusion protein (human) (P20701 153-335): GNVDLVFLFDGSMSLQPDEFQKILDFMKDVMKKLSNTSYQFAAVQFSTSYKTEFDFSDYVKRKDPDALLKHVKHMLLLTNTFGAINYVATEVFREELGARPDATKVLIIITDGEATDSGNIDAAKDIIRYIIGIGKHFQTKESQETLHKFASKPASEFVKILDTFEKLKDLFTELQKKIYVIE
# Sequence of LFA-1 (CD11a/CD18) on THP-1 cells and primary human NK cells (human (endogenous in THP-1 and primary NK cells)) (P20701 26-1170, chain 1 of 2): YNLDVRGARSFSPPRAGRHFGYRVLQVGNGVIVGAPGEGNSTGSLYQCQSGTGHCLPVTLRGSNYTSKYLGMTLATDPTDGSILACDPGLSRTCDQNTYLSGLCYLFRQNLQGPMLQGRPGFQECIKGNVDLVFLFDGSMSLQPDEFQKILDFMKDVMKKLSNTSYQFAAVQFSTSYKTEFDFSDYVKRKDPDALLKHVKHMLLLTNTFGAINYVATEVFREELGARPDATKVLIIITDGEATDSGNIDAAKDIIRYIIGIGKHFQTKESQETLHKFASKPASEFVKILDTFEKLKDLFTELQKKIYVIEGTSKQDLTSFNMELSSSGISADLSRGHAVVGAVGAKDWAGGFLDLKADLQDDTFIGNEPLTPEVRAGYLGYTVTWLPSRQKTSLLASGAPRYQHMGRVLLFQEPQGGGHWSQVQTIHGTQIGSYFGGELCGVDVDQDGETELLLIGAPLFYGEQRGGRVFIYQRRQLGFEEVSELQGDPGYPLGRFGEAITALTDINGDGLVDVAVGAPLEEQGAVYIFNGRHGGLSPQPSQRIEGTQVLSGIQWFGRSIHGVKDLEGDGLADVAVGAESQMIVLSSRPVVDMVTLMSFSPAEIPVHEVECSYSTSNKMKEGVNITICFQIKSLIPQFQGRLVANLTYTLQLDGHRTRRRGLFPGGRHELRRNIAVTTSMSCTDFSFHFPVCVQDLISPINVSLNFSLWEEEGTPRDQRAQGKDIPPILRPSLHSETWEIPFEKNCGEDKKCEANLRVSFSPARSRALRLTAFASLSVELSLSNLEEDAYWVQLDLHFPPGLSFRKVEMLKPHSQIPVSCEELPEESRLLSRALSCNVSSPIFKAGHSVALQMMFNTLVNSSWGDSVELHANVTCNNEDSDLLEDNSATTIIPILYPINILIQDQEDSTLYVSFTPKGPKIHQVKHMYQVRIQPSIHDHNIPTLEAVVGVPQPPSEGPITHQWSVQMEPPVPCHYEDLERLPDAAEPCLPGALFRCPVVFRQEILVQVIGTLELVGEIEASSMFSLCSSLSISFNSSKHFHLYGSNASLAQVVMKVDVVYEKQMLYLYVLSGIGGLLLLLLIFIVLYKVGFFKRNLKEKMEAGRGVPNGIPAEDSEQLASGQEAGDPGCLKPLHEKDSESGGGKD
# Sequence of LFA-1 (CD11a/CD18) on THP-1 cells and primary human NK cells (human (endogenous in THP-1 and primary NK cells)) (P05107 23-769, chain 2 of 2, further chain): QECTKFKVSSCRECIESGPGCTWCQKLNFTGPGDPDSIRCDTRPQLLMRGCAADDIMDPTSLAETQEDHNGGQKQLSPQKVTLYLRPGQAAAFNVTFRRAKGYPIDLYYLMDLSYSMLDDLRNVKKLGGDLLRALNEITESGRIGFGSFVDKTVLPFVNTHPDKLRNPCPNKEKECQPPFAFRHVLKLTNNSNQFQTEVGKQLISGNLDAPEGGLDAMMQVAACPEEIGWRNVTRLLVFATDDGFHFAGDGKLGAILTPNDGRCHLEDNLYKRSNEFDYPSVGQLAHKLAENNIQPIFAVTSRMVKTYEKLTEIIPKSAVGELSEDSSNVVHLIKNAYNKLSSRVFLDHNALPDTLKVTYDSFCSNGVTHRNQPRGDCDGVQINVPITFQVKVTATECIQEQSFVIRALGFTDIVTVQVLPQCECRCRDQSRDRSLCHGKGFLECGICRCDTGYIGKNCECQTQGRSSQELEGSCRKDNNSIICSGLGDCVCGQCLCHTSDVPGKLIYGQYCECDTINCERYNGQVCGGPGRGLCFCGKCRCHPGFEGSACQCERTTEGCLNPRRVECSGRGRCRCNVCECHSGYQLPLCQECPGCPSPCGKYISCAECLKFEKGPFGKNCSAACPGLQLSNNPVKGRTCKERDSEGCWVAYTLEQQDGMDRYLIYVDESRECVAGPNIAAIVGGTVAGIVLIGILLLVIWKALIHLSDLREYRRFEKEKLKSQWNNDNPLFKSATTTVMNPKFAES
# Sequence of PfGBP-130-N (N-terminal fragment of PfGBP-130, aa 69-270) (domain or fragment) (Q8I6U8 69-270): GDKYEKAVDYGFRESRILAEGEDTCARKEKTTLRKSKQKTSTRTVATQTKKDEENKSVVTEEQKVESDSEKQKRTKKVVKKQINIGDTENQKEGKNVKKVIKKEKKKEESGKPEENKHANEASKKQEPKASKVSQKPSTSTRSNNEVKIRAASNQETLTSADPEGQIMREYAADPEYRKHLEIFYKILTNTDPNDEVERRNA
substance,measurement,setting,value
"PfGBP-130 extracellular domain fused to the transmembrane domain of transferrin receptor (TfR-TM), on CHO K1 cells","CD25 expression on primary human NK cells co-cultured 24 hr with CHO-PfGBP-ECD (2:1, Poly I:C/Lipofectamine 2000) compared to mock CHO cells, flow cytometry; reduced by anti-CD11a (HI111)",[1],40%
same,"CD69 expression on primary human NK cells co-cultured 24 hr with CHO-PfGBP-ECD (2:1, Poly I:C/Lipofectamine 2000) compared to mock CHO cells, flow cytometry; reduced by anti-CD11a (HI111)",[1],50%
PfGBP-130 ECD-Fc (extracellular domain of PfGBP-130 fused to the Fc region of human IgG1) (Fc fusion),fold increase in binding over hIgG isotype control (THP-1 cells),[2],3 fold
"PfGBP-130-N (N-terminal fragment of PfGBP-130, aa 69-270) (domain or fragment)",Kd,[3],17 nM
